± gives the uncertainty stated by the source.
B1: Zinc finger MYM-type protein 6, residues 427 to 504; numbered along this chain, O95789 (parent)
chain: KLKCQHCNHLFATKPELLFYKGKMFLFCGKNCSDEYKKKNKVVAMCDYCKLQKIIKETVRFSGVDKPFCSEVCKFLSA

Variants of: B1
Test: abundance fitness (aPCA) (normalised: wild type 0, dead -1); higher = more abundant; growth selection in yeast, the domain comes from the species named
Conditions: Homo sapiens

Row | Variant | abundance fitness
1 | KLKCQHCNHLFATKQELLFYKGKMFLFCGKNCSDEYKKKNKVVAMCDYCKLQKIIKETVRFSGVDKPFCSEVCKFLSA | -0.126 ± 0.049
2 | KLKCQHCNHLFAEKPELLFYKGKMFLFCGKNCSDEYKKKNKVVAMCDYCKLQKIIKETVRFSGVDKPFCSEVCKFLSA | -0.06 ± 0.04
3 | KLKCQHCNHLFATKPELLDYKGKMFLFCGKNCSDEYKKKNKVVAMCDYCKLQKIIKETVRFSGVDKPFCSEVCKFLSA | 0.126 ± 0.056
4 | KLKCQHCNHLFATKPELLMYKGKMFLFCGKNCSDEYKKKNKVVAMCDYCKLQKIIKETVRFSGVDKPFCSEVCKFLSA | -0.196 ± 0.064
5 | KLKCQHCNHLFATKPELLFYKGKMFCFCGKNCSDEYKKKNKVVAMCDYCKLQKIIKETVRFSGVDKPFCSEVCKFLSA | 0.004 ± 0.071
6 | KLKCQHCNHLFATKPELLFYRGKMFLFCGKNCSDEYKKKNKVVAMCDYCKLQKIIKETVRFSGVDKPFCSEVCKFLSA | -0.025 ± 0.029
7 | KLKCRHCNHLFATKPELLFYKGKMFLFCGKNCSDEYKKKNKVVAMCDYCKLQKIIKETVRFSGVDKPFCSEVCKFLSA | -0.226 ± 0.03
8 | KLKCQHCNHLFATKPELLFNKGKMFLFCGKNCSDEYKKKNKVVAMCDYCKLQKIIKETVRFSGVDKPFCSEVCKFLSA | -0.059 ± 0.065
9 | KLKCQHCNHLFATKPELLFYKGKMFLFCGKNCSDEYKKKNKVVAMCDYCKLQKIIKETVRRSGVDKPFCSEVCKFLSA | 0.117 ± 0.074
10 | KLKCQHCNHLFATKPELLFYKGKMFLFCGKNCSDEYKKKNKVVAMCDYCKLQKIIKETVRPSGVDKPFCSEVCKFLSA | -0.308 ± 0.21
11 | KLKCQHCNHLFATKPELLFYKGKMFLFCGKNCSDEYKKKNKVVAMCDYCKLQKIIKETVPFSGVDKPFCSEVCKFLSA | 0.116 ± 0.12
12 | KLKCQHCNHLFATKPELLFYKGKMFLFCGKNCSDEYKKKNKVVAMCDYCKLQKIIKETVMFSGVDKPFCSEVCKFLSA | 0.46 ± 0.14
13 | KLKCQHCTHLFATKPELLFYKGKMFLFCGKNCSDEYKKKNKVVAMCDYCKLQKIIKETVRFSGVDKPFCSEVCKFLSA | -0.067 ± 0.064
14 | KLKCQHCNHLFATKPELLFYKGKMFLFCGKNCSDEYKKKNKVVAMCDYCKLQKIIKETVRFSGVDKPDCSEVCKFLSA | -0.35 ± 0.17
15 | KLKCQHCNHLFATKPELLFYKGKMFLFCGKNCSDEYKKKNKVVAMCDYCKLQKIIKETVRFSGVDKPFCSEVCKNLSA | 0.487 ± 0.24
16 | KLKCQHCNHLFATKPELLFYKGKMFLFCGKNCSDEYKKKNKVVAMCDYCKLQKIIKETVRFSGVDKPFCSGVCKFLSA | -0.292 ± 0.092
17 | KLKCQHCNHLFATKPELLFYKGKMFLFCGKNCSDYYKKKNKVVAMCDYCKLQKIIKETVRFSGVDKPFCSEVCKFLSA | -0.108 ± 0.098
18 | KLKCQHCNHLFATKPELLFYKGKMFLFCGKNCSDEYKKKNKVVAMCDYCDLQKIIKETVRFSGVDKPFCSEVCKFLSA | -0.767 ± 0.37

Row | Variant | abundance fitness
19 | KLKCQWCNHLFATKPELLFYKGKMFLFCGKNCSDEYKKKNKVVAMCDYCKLQKIIKETVRFSGVDKPFCSEVCKFLSA | -0.102 ± 0.032
20 | KCKCQHCNHLFATKPELLFYKGKMFLFCGKNCSDEYKKKNKVVAMCDYCKLQKIIKETVRFSGVDKPFCSEVCKFLSA | -0.089 ± 0.042
21 | KLKCQHCNHLFATKPELLFYKGKMFLSCGKNCSDEYKKKNKVVAMCDYCKLQKIIKETVRFSGVDKPFCSEVCKFLSA | -0.459 ± 0.039
22 | KLKCQHCNHLFATKPELLFYKGKMFLFCGKNCSDEYKKKNKVVAMCDYCKLQKIIKETVRFSGVDKPFCSEVCKFHSA | 0.095 ± 0.32
23 | KLKCQHCNHLFATKPELLFYKGKMFLFCGKNCSDEYKKKAKVVAMCDYCKLQKIIKETVRFSGVDKPFCSEVCKFLSA | -0.02 ± 0.064
24 | KLKCQHCNHLFATKPELLFYKGKMFLFCGKNCSDEYKKKNKVVAMCDYCKLQKIIKETVRFSGVDKPFCSEVCQFLSA | -0.123 ± 0.13
25 | KLKCQHCNHLFATKPELLFYKGKMFLFCGKNCSDEYKKPNKVVAMCDYCKLQKIIKETVRFSGVDKPFCSEVCKFLSA | -0.055 ± 0.048
26 | KLKCQHKNHLFATKPELLFYKGKMFLFCGKNCSDEYKKKNKVVAMCDYCKLQKIIKETVRFSGVDKPFCSEVCKFLSA | -0.451 ± 0.095
27 | KLKCQHCNHLFATKPELLFYKGKMFLFCGKNCSDEYKKKNKVVAMCDYCKLQKIIKETVRFSGVDKPFCSEVRKFLSA | -0.863 ± 0.15
28 | KLKCQHCNHIFATKPELLFYKGKMFLFCGKNCSDEYKKKNKVVAMCDYCKLQKIIKETVRFSGVDKPFCSEVCKFLSA | -0.135 ± 0.11
29 | KLKCQHCNHWFATKPELLFYKGKMFLFCGKNCSDEYKKKNKVVAMCDYCKLQKIIKETVRFSGVDKPFCSEVCKFLSA | 0.004 ± 0.033
30 | KLKCQHCNHLFATKPELLFYKGKMFLFCGKNCSDEYKKKNKVVAMSDYCKLQKIIKETVRFSGVDKPFCSEVCKFLSA | -0.703 ± 0.17
31 | KLKCQHCNHLFATKPELLFYKGKMFLFCGKNCSDEYKKKNKVVAMCDYCKLQKSIKETVRFSGVDKPFCSEVCKFLSA | 0.174 ± 0.18
32 | KLKCQHCNHLFATKPELLFYKGKMFLFCGKNCSDEYKKKNKVVAMCDYCKLQKIIKETVRFSGVDHPFCSEVCKFLSA | -0.091 ± 0.19
33 | KLKCQHCNHLFATKPELLFYKGKMFLFCGYNCSDEYKKKNKVVAMCDYCKLQKIIKETVRFSGVDKPFCSEVCKFLSA | -0.028 ± 0.092
34 | KLKCQHCNHLFATKPELLFYKGKMFLFCGKNCSDEYKKKNKVVAMCDYCKLQKIIKETVRFSGVDKEFCSEVCKFLSA | -0.562 ± 0.23
35 | KLKCQHCNHLFATKPELLFYKGKMFLFCGKNCSDEYKKKNKVVAMCQYCKLQKIIKETVRFSGVDKPFCSEVCKFLSA | -0.106 ± 0.2
